Target: Met receptor on MK keratinocytes (mouse) (UniProt P16056)
Test: cell-based or functional assay

InIB full length (from UniProt P0DQD2 31-630) (ligand)
stimulation of DNA synthesis in MK keratinocytes, lowest active concentration: 100 pM

— EP2138508A1
